Experimental data taken from the nanobody polyreactivity screen of Harvey et al. (2022).

Assay: yeast display, Sf9 membrane polyspecificity reagent, FACS + sequencing; frameworks hold sequencing errors
How it was run: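 Galactose induction of a Saccharomyces cerevisiae BJ5465 synthetic nanobody display library ran 36–48 hours. The cells were then stained for 1 hour at 4 °C with 10% biotinylated, detergent-solubilized Sf9 membrane reagent, pulled down on streptavidin microbeads and FACS-sorted into low and high (top ~1%) gates on expression and reagent-binding fluorescence. Labels for polyreactivity follow the gate of origin.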

Sequence | polyreactivity (PSR sort gate)
QVHLVESRGVLVQAGGSLRLSCAASGRTFPSYTMGWYRQAPGKERELVAAITWTGGSTYYADSVKGRFTISRDNAKNTVYFQMNSLKPDDTAVYYCADYDYWGQGTQVTVSS | low polyreactivity
QVQLQESGSGLVQAGGSLRLSCAASGYISLGDNMGWYRQAPGKEREFVATISVGGITYYVDSVKGRFTISRDIAKNTVYLQMNSLKPEDTAVYYCADLDIYYFRYYYWGQGTQVTVSS | low polyreactivity
QVQLVESRGGLVQAGGSLRLSCAASGSTFFRYAMGWYRQAPGKERELVAAITDSDGSTYYADSVKGRFTISRDNAKNTVYLQMNSLKPEDTAVYYCAAAHPDGWTVYNPQGGAWYDYWGQGSQVTVSS | low polyreactivity
QVQLVESGGGLVQAGGSLRLSCAASGRIFAVNAMGWYRQAPGKERELVAAINGGGSTNYADSVKGRFTISRDNAKNTVYFQMNSLKPEDTAVYYCAADVGWRSQTRGYYWGQGTQVTVSS | high polyreactivity
QVQLVESGGGLVQAGGSLRLSCAASGSIFIYNAMGWYRQAPGKERELVAAISSSGGSTYYADSVKGRITISRDNAKNTVYLQMNSLKPEPTAVYYCAARTYYVRGLGGRPGMDYCGQGTQVTVSS | low polyreactivity
QVQLVESGGGLVQAGGSLRLSCAASGRIFWGNAMGWYRQAPGKEWELVAAITRRGGTTFYADSVKGRFTISRDNAKNTVYLQMNSLKPEDTAVYYCAARRYGQYDGYDSWGQGTQVTVSS | high polyreactivity
QVHLVESGGGLVQAGGSLRLSCAASGSIFTRYVMGWYRQAPGKERELVAAISWSGGSTYYADSVKGRFTISRDNAKNTVYLQMNSLKPEDTAVYYCAAYYWYWSAAWWDEGEMEYWGQGTQVTVSS | high polyreactivity
QVQLVESGGGLVQAGGSLRLSCAASGITFIRNAMGWYRQAPGKERELVAAISYRGGSTYYADSVKGRFTISRDNAKNTVYLQMNSLKPEDTAVYYCAAKRYGYKMYYWGQGTQVTVSS | high polyreactivity
QVQLVESGGGLVQAGGSLRLSCAASGLTFYYYAMGWYRQAPGKERELVAAISIGGSTDYADSAKGRFTISRDNAKNTVYLQMNRLKPEDTAVYYCNVDDNSEYDYWGQGTQVTVSS | low polyreactivity
QVQLKENGVGLVQAGGSLRMSCAASGYISHADEMGWNSQAPGKEHELVASISNGGSTNYADSVKGRFTISRDNAKNSVYLQMNSLKSEDTAVYYCAAWTGQVDINYYWGQGSQVTVSS | low polyreactivity
QVQLHESGGGLEQAGGSLRLSCAASGYISDIGTMGWYRQAPGKEREFVATIVVGSTTNYADSVKGRFTISRDNAKNSVYLQPESGRYRGVLLRGWLLAVGKFTYWGQGTQETVSS | low polyreactivity
QVQLVESGGGLVQAGGSLRLSCAASGRIFGGNAMGWYRQAPGKERELVAAINSSGGRTYYADSVKGRFTISRDNAKNTVYLQMNSLKPEDTAVYYCAARVGGNWYDYWGQGTQVTVSS | high polyreactivity
QVQLVESGGGLVQAGGSLRLSCAASGRIVRNAMGWYRPAPGKEWELVAAITRSGGSTYYADSVKGRFTISRDNAKKTVYLQMNSLKPEDTAVYYCAARHYRSRDGYSGQGTQVTVSS | high polyreactivity
QVQLVESGGGLVQAGGSLRLSCAASGVTFYHNAMGSYRQAPGKERELVAAISSSGDSTYYADSVKGRFTISRDNAKNTVYLHMNSLKPEDTAVYYCNDYFYYLSLYYYYWFNYDYWGQGTQVTVSS | low polyreactivity
QFQLVESGGGLVQAGGSLRLSCAASGSIFYTYTMGWYRQAPGKDRVLVAAISFSDGDTYYADSVKGRFTISRDNAKNTVYLQMNSLKPEDTAVYYSNAYVYLPNYPYDYWGQGTQVTVSS | low polyreactivity
QVQLVESGGGLVQAGGSLRLSCAATGRIFRTTAMGWYRQAPGTVRELVAAITFSGGGTYYADSVKGRFTISRDHAKNTGYLQMNSLKPEETAFYYCYADDSYDLSCFEDDYWGQGTQVTVSS | low polyreactivity
QVQLVESGGGLLQAGGSLRLSCAASGRIGRYAMGCYRQAPGKERQLVAVITSGDSTYYADSVKGRFTISRDNAKNTVYLQMNSLKPEESPVESCAADSYRRWGNLFTGNEYDSWGQGTQVTVSS | low polyreactivity
QVQLVESGGGLVQAGGSLRLSCAASGRTLYYKAMGWYRQAPGKERELVAAISRSGGSTYYADSVKGRFTISRDNAKNTVYLQMNSLKPEDTAVYYCAVLPSYTSWESSDYWGQGTQVTVSS | high polyreactivity
QVQLVESGGGLVQAGGSLRLSCAASGRTFYYYYTMGWYRQPPGKETELVAAISRSGSTNYADSVKGRFTISRDNAKNTVYLQMNSLKPEDTAVYYCARSYRSDGSRFGYWGQGTQVTVSS | low polyreactivity
QVQLVESGGGLLQAGGSLRVSCAASGFIFVLYAMGWYRQAPGKERELVAAITWSTGCTYYADSVKGRFTISRDNAKNTVYLHMNSLKPEDTAVYYCSADQYIFGIWFDYWGQGTQVTVSS | high polyreactivity
QVQLVESGGGLVQAGGSLRLSCAASGSTFKWYAMGWYRQAPGKERELVAAITRGGSTSYADSVKGRFTISLDNAKNTVYLQMNSLKPEDTAVYYCAADYHYTKSMYYWGQGTQVTVSS | low polyreactivity
QVQIVESGGGLVQAGGSLRLSCAASGRIFAYNAMGWYRQAPGKERELVVAISWTGGRTSYADSVKGRFTISCDNAKNTVYLQMNSLKPEDTAVYYCNARYRYRLRGYDYWGQGTQVTVSS | high polyreactivity

Sequence | polyreactivity (PSR sort gate)
QVQLVESGGGLVQAGGSLRLSCAASGRIFRGYAMGWYRQAPGKERELVAAISGGGGSTYYADSVKGRFTISRDNAKNTVYLQMNSLKPEDTAVYYCNALRIRGSKVFEGDYWGQGTQVTVSS | high polyreactivity
QVQLVESGGGLVQAGGSLRLSSAASGGIFQLYAMGWYRQAPGKERELVADISRSGGSTYYADSVKGRFTISRDTAKNTVYLQMNSLKPEDTAVYYCAARYWTSIVRYRGDYWGQGTQVTVSS | high polyreactivity
QVQLVESGGGLVQAGGSLRLSCAASGSIFAGYAMGWYRQAPGKERELVAAISSSGGRTYYADSVKGRFTISRDNAKNTVYLQMNSLKPVDTAVYYCAVSTYEEEYWGQGTQVTVSS | high polyreactivity
QVQLVESGGGLLQAGGSLRLSCAASGFTFGFYGRGWYRQAPGKERELVAAISYSGGTTYYADSVKARFTIARDNAKNTVYLQMNCLKPQDTAVNYCNTQSRETEDADYWGQGTQVTVSS | high polyreactivity
QVQLVDSGGGLVQAGGILRLICAASGSTFGFYAMGWYRQAPGKERELVAAITTGGSTNYADSVKGRFTISRDNAKNTVYLQMNSLKPEDTAVYYCNADVFWNPYYDYDFWGQGTQVTVSS | high polyreactivity
QVQLVESGGGLVQAGGSLRLSCAASGIIFDYNAMGWYRPAPGKERELVAAISGRSGRTYYADSVKGRFTISRDNAKNTVYLQMNSLKPEDTAVYYCAARWYAGGNYWGQGTQVTVSS | high polyreactivity
QVQLVESGGGLVQAGGSLRLTCAASGSTFWSNSMGWYRQAPGKERELVAAISSRGGSTYYADSVKGRFTISRDNAMNTVYLQMNSLKPEDTAVYYCAARSKRLAHDYWGQGTQVTVSS | high polyreactivity
QVQLVESGGGLVQAGGSLRLSCAASGSIFGYNAMGWYRQAPGKEREFVAAITSGGSTYYADSVKGRFTISRDNAKNTVYLQMNSLKPEDTAVYYCRRRNVYSTRRYDYWGQGTQVTVSS | high polyreactivity
QVHLVDSGGGLVQAGGSLRLSSADSGSTFAANAIGWYRQAPGKERELVAAITSSGGSTYYADSVKGRFTISRDNATNTVYLQKNSLKPEDTAVYYCNKDMERYVRIYDSWGQGSQVTVSS | low polyreactivity
QVQLVESGGGLVQARGSLRLSCAATGSTFDKYAMGRYRQAPGKERELVAAISSSGTRTYYADSVKGRFTISRDNAKITVYLQMNSLKPEDTAVYYCDTGGSNKYYYWGQGTQVTVSS | high polyreactivity
QVQLVESGGGLVQAGGSLRLSCAASGSTFQGNAMGWYRQAPGKERELVAAISKRGGSTYYADSVKGRFTISRDNAKNTVYLQMNSLKPEDTAVYFCNAKLFASRGYYFGGAYQYGYWGQGTQVTVSS | high polyreactivity
QVQLVESGGGLVQAGGSLRLSCAASGIIFDYNAMGWYRQAPGKERELVAAITSTDNTNYADSVKGRFTISRDNAKNTVYLQMNSLKPEDTAVYYCNTDYWLSVVYAMDYWGQGTQVTVSS | low polyreactivity
QVQLVESGGGLVQAGGSLRLSCAASGRTFNYYNMGWYRQAPGKERELVAAISRGGTTYYADSVKGRFTISRDNAKKTVYLQMNSLKPEDTAVYYCAVAYAPRVQTVWSYVSGSTYYSWGQGTQVTVSS | high polyreactivity
QVQHVESGGGLVQAGGSLRLSCAASGSIFSFNAMGWYRQAPGKERELVASISRNGGSTYYADSVKGRFTISRDNAKNTVYLQMNSLKPEDTAVYYCAVKVRNRRYGYWGQGTQVTVSS | high polyreactivity
QVQLVESGGGLVQAGGSLRLSCAASGSIFYGYAMGWYRQAPGKERELVAAISRRGGSTYYADSVKGRFTISRDIAKNTVDLQMNSLKPEDTAVYYCAAVGLWYEYYYWGQGTQVTVSS | high polyreactivity
QVQLVESGGGLVQAGGSLRLSCAASGSTFNVNAMGWYRQAPGKETEFVAAITYRGGRTYYADSVKGRFTISRDNEKNTVYLQMNSLKPEDTAVYYCAADGYRKRGFDYWGQGTQVTVSS | high polyreactivity
QVQLVESGGGLVQAGRSLRLTCAASGRTFWWYAMGWYRQAPGKEWEFVAAISQRGTSTYYADSVKGRFTISRDNAKNTVYLQMNSLKPEDTAVYDCAATVYPSWYVLFTARRMDYWGQGTQVTVSS | high polyreactivity
QVQLVESGGGLVHAGGSLRLSFAASGRTFTLNAMGWYRQAPGKEREFVAAISNSGVRTYYADSVKGRFTISRDNAKNTVYLQMNSLTPEDTAVYYCDGTYQVGDSIDDYWGQGTQVTVSS | low polyreactivity
QVQLVESGGGLVQAGGSLRLSCAASGRTFPFNAMGWYRQAPGKERELVAAIRWSGGSTYYADSVKGRFTISRDNAKNTVYLQMNSLKPEDTAVYYCAAVYPKIRSYRYGYWGQGTQVTVSS | high polyreactivity
QVQLVESGGGLVQAGGSLRLSCAASGFTFAPYAMGWYRQAPGKERELVAAISSNGGSTYYADSVKGRFTISRDNAKNTVYLQMISMKPEYTAVYYCAVTSIGYTRYYYWGHGTQVTVSS | high polyreactivity
QVQLVESGGGLVQAGGSLRLSCAASGSTFSRYAMGWYRQAPGKERELVAAISGSGGSTSYADSVKGRFTISRDNAKNTVYLQMNSLKPEDTAVYYCAAYYLWYSRAFDYWGQGTQVTVSS | high polyreactivity
